As a reminder, the Kd is the equilibrium constant for the complex coming apart. A high value points to a looser complex.

Experiment [1] concerns the target T1, cynomolgus CD3 on HSC-F cells (cynomolgus, UniProt Q95LI5 22-198).
T1 construct: whole, on cells; also called Cyno HSC-F; cynomolgus HSC-F cells
The experiment can be described thus: flow cytometry, yeast-produced IgG 100 nM on HSC-F cells, pH 6.0. How it is done: (§1) Anti-CD3 antibodies Antibody Nos. 1-13 were produced as aglycosylated IgGs comprising a IgG1 Fc region in yeast cells. Binding to human or cynomolgus CD3-expressing cells (human CD3+ Jurkat cells or cynomolgus HSC-F cells, respectively) at pH 7.4 and pH 6.0 were measured by fluorescence-activated single cell sorting (FACS). Normalized cell binding (NCB) values were calculated based on median fluorescence intensity (MFI) values, CD3 negative Jurkat cells were used as a negative control.
(§2) Cell binding assay, CD3+ and CD3− human Jurkat cells (ATCC) and cynomolgus HSC-F cells (NIH) were thawed and washed with cold PBSF buffer, pH 7.4 (PBS+0.1% BSA, pH 7.4). About 200,000 cells were aliquoted per well of a 96-well plate (FACS Assay Plate VWR BD 353263) and pelleted by centrifugation (5 minutes at 500×g). The cells were washed with either PBSF pH 7.4 or PBSF pH 6.0 (PBS+0.1% BSA, pH 6.0), and then resuspended in 100 μl in either PBSF pH 7.4 or PBSF pH 6.0 with IgG antibody (100 nM) produced in yeast as described above. The mixture (cells+antibody) was incubated for 20 minutes on ice, then washed twice with either PBSF pH 7.4 or PBSF pH 6.0. Cells were resuspended in 50 μl of propidium iodide (Roche; 1:500 dilution) and anti-human IgG-RPE (Southern Biotech; 1:100 dilution) prepared in either PBSF pH 7.4 or PBSF pH 6.0, then incubated for 20 minutes on ice in the dark before cells were washed twice with either PBSF pH 7.4 or PBSF pH 6.0. Binding was analyzed on FACS Canto 11.
A general note: A flow cytometer gives signals particle by particle.

The target of experiment [2] is T1, cynomolgus CD3 on HSC-F cells. The experiment can be described thus: flow cytometry, yeast-produced IgG 100 nM on HSC-F cells, pH 7.4. How it is done:
as §1, §2

For experiment [3], the target named is T2, human CD3 on CD3+ Jurkat cells (human, UniProt P07766 23-207).
T2 construct: whole, on cells; The whole CD3 complex stands on the cells; also called Human CD3 Jurkat; human CD3+ Jurkat cells
T2 sequence (P07766 23-207): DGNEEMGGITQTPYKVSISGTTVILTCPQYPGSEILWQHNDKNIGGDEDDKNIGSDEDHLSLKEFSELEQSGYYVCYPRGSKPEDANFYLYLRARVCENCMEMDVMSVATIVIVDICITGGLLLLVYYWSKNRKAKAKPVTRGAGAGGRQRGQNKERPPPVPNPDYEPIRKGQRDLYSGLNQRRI
The experiment is described as follows: flow cytometry, yeast-produced IgG 100 nM on CD3+ Jurkat cells, pH 6.0. The protocol:
as §1, §2

Experiment [4] addresses T2, human CD3 on CD3+ Jurkat cells. The experiment can be described thus: flow cytometry, yeast-produced IgG 100 nM on CD3+ Jurkat cells, pH 7.4. The protocol:
as §1, §2

Experiment [5] has as its target T3, cynomolgus CD3εδ-Fc heterodimer (Cy CD3ε Fc / CD3δ Fc-HIS) (cynomolgus, UniProt Q95LI8 22-100).
T3 construct: range 22-100; Produced in HEK 293 cells; also called Cy CD3εδ Fc heterodimer; not shown: Fc-HIS part of CD3δ Fc-HIS
The experiment is described as follows: BLI (Octet), CHO-produced IgG on AHC sensor, CD3εδ-Fc 100 nM in solution, pH 6.0. The protocol:
(§3) Anti-CD3 antibodies Antibody Nos. 1-13 were produced as human IgG1 antibodies in yeast or CHO cells. IgGs produced in yeast were aglycosylated, CHO) produced IgGs had standard CH2 glycosylation. Binding affinity to human or cynomolgus CD3εδ-Fc at pH 7.4 and pH 6.0 was measured via biolayer interferometry (BLI) using the ForteBio OCTET® HTX system and analyzed using the ForteBio software.
(§4) Kinetics were analyzed using the 1:1 binding model.
(In general: BLI is a label-free optical method that tracks binding on a fibre tip over time.)

Experiment [6] concerns the target T4, human CD3εδ-Fc heterodimer (Hu CD3ε Fc / CD3δ Fc-HIS) (human, UniProt P04234 22-100).
T4 construct: range 22-100; Produced in HEK 293 cells with a heterologous signal peptide; heterodimer purified by Ni Sepharose and Mono Q; also called Hu CD3εδ Fc heterodimer; CD3εδ Fc-HIS heterodimer; not shown: Fc-HIS part of CD3δ Fc-HIS
The experiment is described as follows: BLI (Octet), yeast-produced IgG on AHC sensor, CD3εδ-Fc 100 nM in solution, pH 6.0. How it is done:
as §3, §4

Experiment [7] concerns the target T3, cynomolgus CD3εδ-Fc heterodimer (Cy …). The description is as above. How it is done: as §3, §4
For experiment [8], the target named is T4, human CD3εδ-Fc heterodimer (Hu CD3ε Fc …). The experiment can be described thus: BLI (Octet), yeast-produced IgG on AHC sensor, CD3εδ-Fc 100 nM in solution, pH 7.4. The protocol: as §3, §4
The target of experiment [9] is T3, cynomolgus CD3εδ-Fc heterodimer (Cy …). The experiment is described as above. The protocol: as §3, §4

T3 sequence (chain, as listed by the source mutant, form in doubt, chain 1 of 2): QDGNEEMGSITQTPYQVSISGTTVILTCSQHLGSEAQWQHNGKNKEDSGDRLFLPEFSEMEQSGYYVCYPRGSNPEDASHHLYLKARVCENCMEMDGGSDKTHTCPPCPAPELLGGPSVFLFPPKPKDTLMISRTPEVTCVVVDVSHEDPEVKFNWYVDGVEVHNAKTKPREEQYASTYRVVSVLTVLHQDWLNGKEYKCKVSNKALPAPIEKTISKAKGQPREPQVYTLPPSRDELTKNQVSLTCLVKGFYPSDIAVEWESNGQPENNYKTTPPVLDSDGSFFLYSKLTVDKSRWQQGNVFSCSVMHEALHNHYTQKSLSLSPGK
T3 sequence (Q95LI8 22-100, stated change not applied, form in doubt, chain 2 of 2): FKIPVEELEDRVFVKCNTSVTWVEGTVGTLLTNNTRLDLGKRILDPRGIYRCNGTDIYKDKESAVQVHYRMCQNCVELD
T4 sequence (chain, as listed by the source mutant, form in doubt, chain 1 of 2): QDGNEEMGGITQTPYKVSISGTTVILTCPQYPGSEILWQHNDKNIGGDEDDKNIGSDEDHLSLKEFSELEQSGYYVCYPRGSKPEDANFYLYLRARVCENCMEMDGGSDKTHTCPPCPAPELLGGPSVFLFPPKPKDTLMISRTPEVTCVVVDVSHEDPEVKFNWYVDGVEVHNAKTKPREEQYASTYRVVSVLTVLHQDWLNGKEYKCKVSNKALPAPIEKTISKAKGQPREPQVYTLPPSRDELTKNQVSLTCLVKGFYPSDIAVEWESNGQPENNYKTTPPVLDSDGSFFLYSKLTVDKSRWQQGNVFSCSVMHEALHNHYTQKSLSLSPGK
T4 sequence (P04234 22-100, stated change not applied, form in doubt, chain 2 of 2): as the sequence (Q95LI8 22-100, stated change not applied, form in doubt, chain 2 of 2) above, with V5I, K15N, V20I, T32S, N33D, N34I, A64T, N74S counted along it
T1 sequence (Q95LI5 22-198): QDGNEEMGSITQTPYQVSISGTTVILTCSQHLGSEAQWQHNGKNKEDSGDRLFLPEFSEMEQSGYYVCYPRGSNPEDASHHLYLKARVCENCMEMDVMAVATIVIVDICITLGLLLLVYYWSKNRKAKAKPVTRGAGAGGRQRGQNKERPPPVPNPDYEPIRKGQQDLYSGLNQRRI

B1: ADI-48587 (Antibody No. 2), human IgG1 (antibody, V domains shown)
VH: QVQLVQSGAEVKKPGASVKVSCKASGFNIKDYYMHWVRQAPGQRLEWMGWIDLENANTIYDAKFQGRVTITRDTSASTAYMELSSLRSEDTAVYYCARDHYHRYFYDVWGQGTLVTVSS
VL: DIVMTQSPDSLAVSLGERATINCKSSQSLLNARTGHNYLAWYQQKPGQPPKLLIYWASTRESGVPDRFSGSGSGTDFTLTISSLQAEDVAVYYCKQSHSHRTFGGGTKVEIK
notes: Tested as human IgG1 (yeast-produced aglycosylated, or CHO-produced); also called Ab No. 2; parent pH-dependent antibody
With B1, the NCB in [1] was determined as 437; in experiment [2], 0; in [3] it was 149; in experiment [4], 0. The values for the Kd in [5] and in experiment [6] were 451 nM and 9.33 nM, respectively.

B2: ADI-74967 (Antibody No. 5), human IgG1 (antibody, V domains shown)
VH: QVQLVQSGAEVKKPGASVKVSCKASGFNIKDYYMHWVRQAPGQRLEWMGWIDLENANTIYDAKFQGRVTITRDTSASTAYMELSSLRSEDTAVYYCARDHYHRYFYDVWGQGTLVTVSS
VL: GIVMTQSPDSLAVSLGERATINCKSSQSLLNARTGKNYLAWYQQKPGQPPKLLIYWASTRESGVPDRFSGSGSGTDFTLTISSLQAEDVAVYYCKQSHSHRTFGGGTKVEIK
notes: Tested as human IgG1 (yeast-produced aglycosylated, or CHO-produced)
With B2, the NCB was found to be 512 in [1], 81 in experiment [2], 185 in experiment [3] and 34 in experiment [4]. The Kd was found to be 37 nM in [5]; 5.94 nM in experiment [6]; 7.38 nM in experiment [7]; 14.5 nM in experiment [8]; 21.9 nM in experiment [9].

B3: ADI-74968 (Antibody No. 6), human IgG1 (antibody, V domains shown)
VH: QVQLVQSGAEVKKPGASVKVSCKASGFNIKDYYMHWVRQAPGQRLEWMGWIDLENANTIYDAKFQGRVTITRDTSASTAYMELSSLRSEDTAVYYCARDAYHRYFYDVWGQGTLVTVSS
VL: DIVMTQSPDSLAVSLGERATINCKSSQSLLNARTGHNYLAWYQQKPGQPPKLLIYWASTRESGVPDRFSGSGSGTDFTLTISSLQAEDVAVYYCKQSYSHRTFGGGTKVEIK
notes: as for B2
For B3, the NCB in [1] amounted to 548; in [2] it was 106; in experiment [3], 197; in experiment [4], 62. Further, the Kd in experiment [5] was 17 nM; in experiment [6] it was 5.23 nM; in experiment [7], 5.26 nM; in experiment [8], 13 nM; in experiment [9] it was 20.5 nM.

B4: ADI-74966 (Antibody No. 4), human IgG1 (antibody, V domains shown)
VH: QVQLVQSGAEVKKPGASVKVSCKASGFNIKDYYMHWVRQAPGQRLEWMGWIDLENANTIYDAKFQGRVTITRDTSASTAYMELSSLRSEDTAVYYCARDHYHRYFYDVWGQGTLVTVSS
VL: DIVMTQSPDSLAVSLGERATINCKSSQSLLNARTGHNYLAWYQQKPGQPPKLLIYWASTRESGVPDRFSGSGSGTDFTLTISSLQAEDVAVYYCKQSYSHRTFGGGTKVEIK
notes: as for B2
B4: the NCB in experiment [1] was found to be 378; in [2], 0; in [3] it was 131; in [4], 0. The Kd in [5] turned out to be 209 nM; in experiment [6] it was 6.95 nM; in [7], 9.71 nM; in experiment [9], 47.6 nM.

B5: ADI-74965 (Antibody No. 3), human IgG1 (antibody, V domains shown)
VH: QVQLVQSGAEVKKPGASVKVSCKASGFNIKDYYMHWVRQAPGQRLEWMGWIDLENANTIYDAKFQGRVTITRDTSASTAYMELSSLRSEDTAVYYCARDAYHRYFYDVWGQGTLVTVSS
VL: DIVMTQSPDSLAVSLGERATINCKSSQSLLNARTGHNYLAWYQQKPGQPPKLLIYWASTRESGVPDRFSGSGSGTDFTLTISSLQAEDVAVYYCKQSHSHRTFGGGTKVEIK
notes: as for B2
As to B5, the NCB in experiment [1] came out at 551; in experiment [2] it was 74; in [3], 181; in experiment [4], 39. For the same molecule, the Kd in experiment [5] came to 33.5 nM; in experiment [6], 6.68 nM; in experiment [7] it was 6.56 nM; in experiment [8], 13.7 nM; in experiment [9], 21.8 nM.

The values above are taken from patent US20260152557A1 (Adimab, published 2026).
